Biological target: Vibrio cholerae type IVa pilus secretin PilQ, N-terminally deca-histidine tagged (Vibrio cholerae)
Assay: cryo-EM structure

Vibrio cholerae type IVa pilus secretin PilQ, N-terminally deca-histidine tagged (natural protein)
stoichiometry N: 14

Reference: paper PMC7545093
